B1: Hammerhead Ribozyme (parent)
chain: ACCGGAUGUGCUUUCCGGUCUGAUGAGUCCGUGAGGACGAAACAG

The variants in this data set derive from B1. The experiment in a line: self-cleavage, relative activity (ratio to wild type); higher = more cleavage; co-transcriptional.
As for G10C G25U, the self-cleavage came out at 0.277.

In the case of G10C G25C, the self-cleavage is 0.397.

Regarding G10C G25A, the self-cleavage is 0.368.

For G10C C20A, the self-cleavage stood at 0.336.

Turning to G10C C20U, the self-cleavage was determined as 0.487.

Regarding G10C C20G, the self-cleavage turned out to be 0.4.

As to G10U, the self-cleavage was determined as 1.07.

Regarding G10C, the self-cleavage stood at 1.05.

Consider G10A, for which the self-cleavage was 1.09.

Take G10U C30G: the self-cleavage worked out at 1.

For the variant G10U C30A, the self-cleavage came out at 0.844.

On to G10U C30U, for which the self-cleavage came out at 1.07.

Regarding U9G U28C, the self-cleavage was 0.673.

Take U9G U28G: the self-cleavage is 0.729.

Turning to U9G U28A, the self-cleavage is 0.833.

On to G10C U19C, for which the self-cleavage came out at 0.503.

For G10C U19A, the self-cleavage worked out at 0.317.

Turning to G10C U19G, the self-cleavage was 0.353.

On to G10A C38U, for which the self-cleavage is 1.33.

Consider G10A C38A, for which the self-cleavage worked out at 0.814.

For the variant G10A C38G, the self-cleavage worked out at 0.751.

For the variant G10A C11U, the self-cleavage was 1.38.

Turning to G10A C11A, the self-cleavage stood at 1.09.

On to G10A C11G, for which the self-cleavage is 1.35.

With U9G C29A, the self-cleavage turned out to be 0.655.

Consider U9G C29U, for which the self-cleavage was determined as 0.713.

On to U9G C29G, for which the self-cleavage stood at 0.534.

G10A A41U: the self-cleavage came out at 0.386.

On to G10A A41C, for which the self-cleavage came to 0.306.

Take G10A A41G: the self-cleavage is 0.359.

Turning to G10A G33A, the self-cleavage is 1.21.

On to G10A G33C, for which the self-cleavage came to 0.959.

G10A G33U: the self-cleavage is 1.01.

In the case of G10A U12C, the self-cleavage came to 1.38.

With G10A U12A, the self-cleavage is 0.985.

As to G10A U12G, the self-cleavage worked out at 1.51.

Consider U9G G45A, for which the self-cleavage amounted to 0.426.

Turning to U9G G45C, the self-cleavage stood at 0.462.

Take U9G G45U: the self-cleavage turned out to be 0.454.

Consider G10C G22C, for which the self-cleavage was found to be 0.28.

Regarding G10C G22A, the self-cleavage was determined as 0.338.

Take G10C G22U: the self-cleavage turned out to be 0.335.

Turning to G10C G35C, the self-cleavage was determined as 0.497.

Turning to G10C G35A, the self-cleavage turned out to be 0.848.

With G10C G35U, the self-cleavage amounted to 0.818.

In the case of G10A U28G, the self-cleavage was determined as 1.15.

In the case of G10A U28A, the self-cleavage was 1.12.

As for G10A U28C, the self-cleavage amounted to 1.37.

Take G10C C16G: the self-cleavage was 0.522.

Turning to G10C C16A, the self-cleavage came out at 0.995.

On to G10C C16U, for which the self-cleavage worked out at 0.964.

Take G10A C30G: the self-cleavage worked out at 0.783.

Regarding G10A C30U, the self-cleavage was determined as 1.06.

As for G10A C30A, the self-cleavage amounted to 1.01.

In the case of G10U C15U, the self-cleavage is 1.07.

As to G10U C15A, the self-cleavage turned out to be 0.817.

As to G10U C15G, the self-cleavage is 0.826.

In the case of U9G U13G, the self-cleavage was 0.802.

Turning to U9G U13A, the self-cleavage was 1.93.

With U9G U13C, the self-cleavage was 1.04.

As to G10U A23C, the self-cleavage was found to be 0.47.

On to G10U A23U, for which the self-cleavage was 0.421.

Regarding G10U A23G, the self-cleavage came to 0.388.

Turning to G10C G36A, the self-cleavage is 0.586.

For G10C G36U, the self-cleavage was found to be 0.56.

As to G10C G36C, the self-cleavage stood at 0.84.

For G10C U32G, the self-cleavage was 0.638.

Consider G10C U32A, for which the self-cleavage was determined as 1.09.

For the variant G10C U32C, the self-cleavage turned out to be 1.3.

Consider G10A U24C, for which the self-cleavage worked out at 0.932.

With G10A U24A, the self-cleavage was 1.12.

G10A U24G: the self-cleavage is 0.875.

Take G10U C20G: the self-cleavage came to 0.343.

For the variant G10U C20U, the self-cleavage was 0.579.

For G10U C20A, the self-cleavage was found to be 0.42.

As to U9G C30G, the self-cleavage amounted to 0.898.

For U9G C30U, the self-cleavage worked out at 1.26.

In the case of U9G C30A, the self-cleavage was 0.677.

As to U9G U14A, the self-cleavage was found to be 0.916.

For U9G U14C, the self-cleavage amounted to 0.41.

For U9G U14G, the self-cleavage was 0.991.

U9G C20G: the self-cleavage came out at 0.422.

Regarding U9G C20U, the self-cleavage was found to be 0.468.

For U9G U12C, the self-cleavage came to 1.57.

Consider U9G U12A, for which the self-cleavage came to 1.04.

On to U9G U12G, for which the self-cleavage came to 0.784.

On to G10A U32G, for which the self-cleavage turned out to be 0.936.

For G10A U32A, the self-cleavage is 1.14.

With G10A U32C, the self-cleavage was 1.52.

Take G10U A34C: the self-cleavage was 1.13.

On to G10U A34U, for which the self-cleavage amounted to 0.864.

As for G10U A34G, the self-cleavage turned out to be 0.942.

As to U9G G18U, the self-cleavage is 0.4.

Regarding U9G G18A, the self-cleavage turned out to be 0.393.

For the variant U9G G18C, the self-cleavage is 0.364.

Take G10C A40C: the self-cleavage was 0.457.

For the variant G10C A40G, the self-cleavage came out at 0.398.

Regarding G10C A40U, the self-cleavage is 0.28.

For the variant G10C U13A, the self-cleavage came out at 1.03.

As for G10C U13G, the self-cleavage was 1.24.

Consider G10C U13C, for which the self-cleavage came out at 1.03.

Regarding G10C A23U, the self-cleavage is 0.447.

As to G10C A23C, the self-cleavage amounted to 0.538.

For G10C A23G, the self-cleavage was found to be 0.309.

For G10C G18C, the self-cleavage came to 0.614.

Consider G10C G18U, for which the self-cleavage turned out to be 0.746.

In the case of G10C G18A, the self-cleavage came out at 1.06.

For the variant G10C A44G, the self-cleavage turned out to be 1.44.

Take G10C A44U: the self-cleavage turned out to be 0.57.

Turning to G10C A44C, the self-cleavage worked out at 0.61.

G10A A40G: the self-cleavage came to 0.346.

In the case of G10A A40C, the self-cleavage came out at 0.676.

With G10A A40U, the self-cleavage was 0.298.

With U9G U19A, the self-cleavage was 0.376.

On to U9G U19C, for which the self-cleavage was 0.329.

As to U9G U19G, the self-cleavage came to 0.343.

On to G10C C29G, for which the self-cleavage worked out at 0.638.

For the variant G10C C29U, the self-cleavage worked out at 1.44.

Turning to G10C C29A, the self-cleavage turned out to be 0.678.

With G10C U12C, the self-cleavage stood at 1.26.

In the case of G10C U12A, the self-cleavage was 0.954.

For G10C U12G, the self-cleavage is 1.09.

On to G10C U28A, for which the self-cleavage worked out at 0.381.

For the variant G10C U28G, the self-cleavage was determined as 0.38.

As to G10C U28C, the self-cleavage was 1.01.

Consider G10C C43A, for which the self-cleavage was 0.354.

Consider G10C C43U, for which the self-cleavage was found to be 0.524.

G10C C43G: the self-cleavage turned out to be 0.381.

As to G10A A26U, the self-cleavage was determined as 0.925.

As to G10A A26C, the self-cleavage came out at 0.666.

Regarding G10A A26G, the self-cleavage is 0.353.

In the case of G10A G31U, the self-cleavage worked out at 0.938.

For the variant G10A G31A, the self-cleavage came to 1.08.

With G10A G31C, the self-cleavage is 1.16.

As for G10A C16A, the self-cleavage was found to be 1.4.

With G10A C16G, the self-cleavage came to 0.812.

Take G10A C16U: the self-cleavage was 0.971.

As to U9G G35U, the self-cleavage was determined as 0.64.

With U9G G35A, the self-cleavage stood at 0.707.

Take U9G G35C: the self-cleavage is 0.562.

For the variant U9G G39A, the self-cleavage amounted to 0.307.

Regarding U9G G39U, the self-cleavage was determined as 0.319.

Take U9G G39C: the self-cleavage worked out at 0.33.

With U9G U21G, the self-cleavage was determined as 0.406.

For U9G U21A, the self-cleavage came to 0.405.

As for U9G U21C, the self-cleavage was 0.414.

With U9G U32C, the self-cleavage is 1.21.

As for U9G U32G, the self-cleavage worked out at 1.07.

Regarding U9G U32A, the self-cleavage is 1.31.

Regarding G10C G45U, the self-cleavage was 0.812.

As to G10C G45C, the self-cleavage worked out at 0.783.

With G10C G45A, the self-cleavage is 0.996.

G10A U13G: the self-cleavage stood at 0.956.

With G10A U13C, the self-cleavage worked out at 1.39.

With G10A U13A, the self-cleavage is 1.72.

With G10C U14A, the self-cleavage turned out to be 0.796.

As for G10C U14G, the self-cleavage stood at 0.606.

Take G10C U14C: the self-cleavage was determined as 1.28.

In the case of G10U A40C, the self-cleavage stood at 0.548.

As for G10U A40U, the self-cleavage worked out at 0.338.

For the variant G10U A40G, the self-cleavage is 0.36.

Turning to G10A A37G, the self-cleavage is 0.639.

G10A A37U: the self-cleavage is 0.921.

G10A A37C: the self-cleavage is 1.19.

Regarding U9G G10U, the self-cleavage was 1.05.

On to U9G G10A, for which the self-cleavage was 0.891.

U9G G10C: the self-cleavage is 0.987.

Source of the values: the RNAGym collection of RNA variant scans (doi:10.7554/elife.80360).
